Biological target: T1, TLR8 (Homo sapiens, UniProt Q9NR97)
T1 construct: expressed in transfected cells
T1 sequence (Q9NR97 27-1041): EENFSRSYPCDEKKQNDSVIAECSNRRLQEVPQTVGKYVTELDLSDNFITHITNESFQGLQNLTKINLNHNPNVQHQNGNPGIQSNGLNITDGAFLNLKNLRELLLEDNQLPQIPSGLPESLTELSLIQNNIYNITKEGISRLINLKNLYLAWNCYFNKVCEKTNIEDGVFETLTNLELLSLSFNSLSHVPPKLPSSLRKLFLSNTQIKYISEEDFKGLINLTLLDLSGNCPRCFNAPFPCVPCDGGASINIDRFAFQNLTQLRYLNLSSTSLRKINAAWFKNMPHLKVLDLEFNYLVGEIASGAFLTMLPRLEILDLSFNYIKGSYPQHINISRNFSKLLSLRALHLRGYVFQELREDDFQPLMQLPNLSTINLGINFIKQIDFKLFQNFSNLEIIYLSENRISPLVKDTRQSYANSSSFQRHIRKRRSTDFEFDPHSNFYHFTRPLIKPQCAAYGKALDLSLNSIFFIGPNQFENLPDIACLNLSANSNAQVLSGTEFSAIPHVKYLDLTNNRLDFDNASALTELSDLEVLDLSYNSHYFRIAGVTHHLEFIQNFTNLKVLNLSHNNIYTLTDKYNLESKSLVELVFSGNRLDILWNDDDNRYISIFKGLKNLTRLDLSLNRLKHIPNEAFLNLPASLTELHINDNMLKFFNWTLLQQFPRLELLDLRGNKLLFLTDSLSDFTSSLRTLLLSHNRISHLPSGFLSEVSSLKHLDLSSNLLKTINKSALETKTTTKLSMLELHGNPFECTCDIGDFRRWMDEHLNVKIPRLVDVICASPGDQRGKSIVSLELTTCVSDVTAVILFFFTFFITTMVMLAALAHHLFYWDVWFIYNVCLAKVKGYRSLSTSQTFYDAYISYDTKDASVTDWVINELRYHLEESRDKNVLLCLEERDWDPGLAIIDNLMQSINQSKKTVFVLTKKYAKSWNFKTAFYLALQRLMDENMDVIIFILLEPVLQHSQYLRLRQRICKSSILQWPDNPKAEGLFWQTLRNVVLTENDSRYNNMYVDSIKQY
Assay: CL075-induced NFκB reporter assay in HEK293_TLR8 cells
Type: cell-based
Conditions: peptide 1, 5 or 25 μM, 2.5 μg/ml CL075, 6 h
Experimental: FIG. 12 is a bar chart showing the effect of A467 and A464 on TLR8-induced NFκB activation in HEK293 cells. HEK293_TLR8 cells were transfected with 60 ng NFκB-Luciferase and 20 ng of TK-Renilla reporter genes, as in FIG. 11. A467 (SEQ ID NO. 23) and A464 (SEQ ID NO. 20) were added to the cells at a concentration of 1, 5 or 25 μM the next day and cells were stimulated with 2.5 μg/ml CL075 1 hour after treatment with the peptide. Cells were harvested and assayed for NFκB activation by reporter gene assay 6 hr after stimulation with the agonist. No peptides were added to the control wells (black bars). Data is representative of at least three experiments each performed in triplicate. Data are expressed as mean fold induction±s.d. relative to control levels;
HEK293 cells were transfected using GeneJuice® a proprietary non-toxic transfection reagent. 200 μl/well cells at a density of 1×10^5 cells/ml were seeded the day before transfection. 0.8 μl of GeneJuice was mixed with 9.2 μl of serum-free DMEM (SFM) per transfection and incubated for 5 min at room temperature before adding the appropriate amount of the plasmid DNA. The GeneJuice/SFM/DNA mixture was then incubated at room temperature for 15 min before adding to the cells. […] Luciferase activity was analysed using a luminometer. […]

With KYSFKLILAEYRRRRRRRRR [Peptide A464] the “inhibition of TLR8-dependent NFκB activation” value was “neither A467 (SEQ ID No. 23) nor A464 (SEQ ID No. 20) had any inhibitory effect”.

Source: patent US8722052B2, “Vaccinia virus protein A46 peptide and use thereof” (priority 2008, dated 2014)
